Experimental data from the supplement of paper PMC9732359.
± gives the uncertainty stated by the source.

Assay: protein stability index of a GFP-peptide fusion (yeast GPS) (PSI 1-4); higher = more stable; sorted into four equal gates, so the index is relative within each strain
In short: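 Tiled yeast protein peptides of 17 residues were each joined downstream of GFP, on plasmids that also express Cherry. The pooled library was maintained in yeast, and mid-log cultures in leucine-free medium were sorted into four equal gates on the GFP/Cherry ratio. Plasmids from every gate were amplified by PCR and sequenced on Illumina, with barcodes linking reads to strains. The protein stability index of a peptide is its gate-number-weighted read frequency summed over the gates.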

| Sequence | protein stability index (doa10∆) | protein stability index (pdr5∆) | protein stability index (ubr1∆) | protein stability index (san1∆) |
| --- | --- | --- | --- | --- |
| LDDPVLNAIVSKNSPAE [YJR042W/NUP85] | 2.9 ± 0.16 | 1.92 ± 0.1 | 2.01 ± 0.078 | – |
| LDFQTNKRLCDEIATIQ [RPS17A] | 2.53 ± 0.091 | 2.98 ± 0.071 | 3.18 ± 0.072 | 2.96 ± 0.057 |
| LDIPNVSLVVNFQISKK [PRP28] | 2.32 ± 0.067 | 2.51 ± 0.077 | 2.71 ± 0.069 | 2.35 ± 0.087 |
| LDKIYTRPISSQVLDLA [SMC2] | 1.53 ± 0.079 | 2.01 ± 0.08 | 1.27 ± 0.054 | 1.25 ± 0.15 |
| LDKQIEELVEAIVLPMK [RPT5] | 2.97 ± 0.15 | 3.02 ± 0.15 | 3.43 ± 0.15 | 3.45 ± 0.12 |
| LDNFQKSVEKTMIKKTT [SMC3] | – | 3.29 ± 0.19 | 3.17 ± 0.075 | 2.89 ± 0.069 |
| LDSNFNLQREIDQAHVS [RPN14] | 2.49 ± 0.045 | 2.75 ± 0.061 | 2.65 ± 0.054 | 2.56 ± 0.059 |
| LDSQETPSTEESRAQNV [SWI3] | 2.41 ± 0.091 | 2.38 ± 0.12 | 2.37 ± 0.051 | 3.16 ± 0.089 |
| LDVSSDRRKARKAYFTA [RPL26A] | 1.79 ± 0.081 | 1.26 ± 0.082 | 2.12 ± 0.07 | 2.42 ± 0.1 |
| LEALMDILLCYQKLFSQ [SRB8] | 2.98 ± 0.055 | 3.16 ± 0.052 | 3.05 ± 0.081 | 3.18 ± 0.048 |
| LEAVNSMIEKGGDWERR [RPN7] | 3.02 ± 0.1 | 3.1 ± 0.093 | 2.87 ± 0.06 | 2.8 ± 0.08 |
| LEDEKMKFQESLKKVDE [SMC4] | – | 2.08 ± 0.26 | – | – |
| LEEFEFKHGPMSLINDA [SMD2] | 3.32 ± 0.073 | 3.22 ± 0.062 | 3.23 ± 0.055 | 3.14 ± 0.059 |
| LEGTRVSLEERTKNLVS [SMC4] | 3.45 ± 0.09 | 3.42 ± 0.075 | 3.35 ± 0.08 | 3.34 ± 0.048 |
| LEKISSSNKDLEDEKMK [SMC4] | 3.31 ± 0.079 | 3.15 ± 0.093 | 3.26 ± 0.077 | 3.23 ± 0.038 |
| LEKLIFDMTNHYNDSQQ [SRB8] | 2.82 ± 0.053 | 2.23 ± 0.045 | 2.51 ± 0.036 | 2.47 ± 0.065 |
| LELMDSKKTGQFNAQGV [POP1] | 3.54 ± 0.12 | 3.6 ± 0.077 | 3.48 ± 0.092 | – |
| LEMSTEDFVKLAPARVR [RPS15] | 2.83 ± 0.13 | 3.05 ± 0.1 | 2.78 ± 0.07 | 3.07 ± 0.065 |
| LENFKSYAGKQVVGPFH [SMC4] | 3.04 ± 0.076 | 3.2 ± 0.19 | 2.98 ± 0.1 | 2.98 ± 0.11 |
| LENMPHPWEQAKEVKVL [PRP8] | 2.7 ± 0.23 | 2.9 ± 0.17 | 2.94 ± 0.093 | 3.09 ± 0.1 |
| LEQEYRLILLLNHRNKN [RMP1] | 1.28 ± 0.045 | 1.18 ± 0.05 | 1.13 ± 0.046 | 1.19 ± 0.084 |
| LEQIQVQLKDANSQIQA [YIL149C/MLP2] | 2.55 ± 0.12 | 2.41 ± 0.27 | 2.43 ± 0.15 | 2.45 ± 0.21 |
| LEQQKQPTGLLKGLNGF [YMR153W/NUP53] | 3.53 ± 0.12 | 3.46 ± 0.11 | 3.34 ± 0.074 | 3.18 ± 0.11 |
| LERARDVNIVNRRLVYS [YCG1] | 2.44 ± 0.27 | – | 1.66 ± 0.13 | 1.72 ± 0.29 |
| LERTAIELKTDWVRFLA [RPN1] | 1.58 ± 0.13 | 1.49 ± 0.098 | 1.17 ± 0.067 | 1.55 ± 0.11 |

| Sequence | protein stability index (doa10∆) | protein stability index (pdr5∆) | protein stability index (ubr1∆) | protein stability index (san1∆) |
| --- | --- | --- | --- | --- |
| LERYVKRCMDDLNPLKT [RPO31] | 3.08 ± 0.078 | 3.15 ± 0.058 | 3.16 ± 0.041 | 3.27 ± 0.043 |
| LESGKETALEFLEKEKQ [SMC4] | 3.62 ± 0.12 | 3.46 ± 0.11 | 3.48 ± 0.079 | 3.17 ± 0.071 |
| LESLKPIDDTMTLLTDS [MTW1] | 3 ± 0.092 | 2.95 ± 0.054 | 2.98 ± 0.046 | 3.04 ± 0.058 |
| LEVANDLQLLYVESDED [IRR1] | 1.43 ± 0.13 | 1.21 ± 0.091 | 1.13 ± 0.046 | 1.42 ± 0.2 |
| LEWNMANLLFKKEKLKQ [RPC82] | 2.13 ± 0.11 | 1.45 ± 0.049 | 1.37 ± 0.082 | 1.38 ± 0.13 |
| LFAFNGVARNFHFAIEQ [SIN4] | 3.01 ± 0.14 | 2.8 ± 0.079 | 3.06 ± 0.064 | 2.55 ± 0.069 |
| LFAREIAKSQDKKSCSV [DPB4] | 3.33 ± 0.064 | 3.24 ± 0.073 | 3.22 ± 0.04 | 3.14 ± 0.067 |
| LFGEKSILGKFCPIVEE [YCS4] | 1.55 ± 0.041 | 1.74 ± 0.052 | 1.73 ± 0.039 | 1.57 ± 0.11 |
| LFGENDTSTQAYEEEEE [NUT1] | 3.34 ± 0.09 | 3.41 ± 0.095 | 3.34 ± 0.075 | 3.5 ± 0.057 |
| LFGSKPQGSTTNGGLFG [YGR119C/NUP57] | 3.38 ± 0.086 | 3.47 ± 0.067 | 3.28 ± 0.037 | 3.43 ± 0.045 |
| LFKGTGFNSWEGLFWEK [PRP8] | 2.44 ± 0.12 | 2.42 ± 0.13 | 1.64 ± 0.04 | 3.36 ± 0.13 |
| LFLTAPDSCNMQEKAAH [YCS4] | – | 2.67 ± 0.24 | 2.92 ± 0.11 | 2.86 ± 0.12 |
| LFPEQQNKEIKAERVED [RPL6A] | 3.61 ± 0.11 | 3.14 ± 0.1 | 3.35 ± 0.056 | 3.59 ± 0.065 |
| LFPIVKKHGKTDYFLPK [YJL039C/NUP192] | 2.46 ± 0.2 | 2.66 ± 0.11 | 2.08 ± 0.062 | 2.58 ± 0.15 |
| LFPNELYNVMGINKKKL [RPC31] | 3.09 ± 0.27 | 2.87 ± 0.24 | 3.5 ± 0.26 | 3.29 ± 0.082 |
| LFSKNRNEVLESMDFLV [YCS4] | 2.08 ± 0.05 | 2.19 ± 0.066 | 2.62 ± 0.052 | 2.43 ± 0.076 |
| LGDMAVCFNNLVDENTD [YCS4] | 2.61 ± 0.068 | 2.8 ± 0.077 | 2.85 ± 0.064 | 2.72 ± 0.076 |
| LGFTPGELRSYLKGATG [FAS1] | 3.26 ± 0.15 | 3.66 ± 0.28 | 3.41 ± 0.17 | 3.33 ± 0.17 |
| LGIALIALGEDIGKEMS [RPN1] | 3.01 ± 0.081 | 3.01 ± 0.091 | 3.02 ± 0.06 | 2.9 ± 0.1 |
| LGINLVTADTVILFDSD [ISW2] | 2.53 ± 0.1 | 2.65 ± 0.086 | 2.94 ± 0.06 | 2.51 ± 0.16 |
| LGKKGVPYVVTHDGRTI [RPS4A] | 2.43 ± 0.068 | 2.52 ± 0.092 | 2.13 ± 0.054 | 1.66 ± 0.098 |
| LGLKFDDLIAEENPIMQ [QCR7] | 2.46 ± 0.28 | 2.21 ± 0.14 | 1.81 ± 0.079 | 2.32 ± 0.16 |
| LGNDIPHDLIIGTADIF [BRR2] | 2.6 ± 0.055 | 2.76 ± 0.068 | 2.86 ± 0.047 | 2.84 ± 0.059 |
| LGNVDAFQLADGIHYIL [PRP8] | 2.74 ± 0.15 | 2.65 ± 0.083 | 1.91 ± 0.042 | 2.42 ± 0.1 |
| LGPLSYQNMAFITAKDK [YJR042W/NUP85] | 2.43 ± 0.075 | 2.22 ± 0.088 | 2.31 ± 0.058 | 2.26 ± 0.079 |

| Sequence | protein stability index (doa10∆) | protein stability index (pdr5∆) | protein stability index (ubr1∆) | protein stability index (san1∆) |
| --- | --- | --- | --- | --- |
| LGYARFILLDRLRQFNL [SMC4] | 2.36 ± 0.061 | 1.8 ± 0.065 | 1.63 ± 0.061 | 1.75 ± 0.079 |
| LGYPPISLVDDIINAVN [MTW1] | 2.46 ± 0.076 | 2.14 ± 0.065 | 1.94 ± 0.069 | 2.44 ± 0.063 |
| LHANGASFFFMVMFMHM [COB] | 1.75 ± 0.037 | 1.36 ± 0.028 | 1.38 ± 0.036 | 1.37 ± 0.065 |
| LHQYYGDDESKIPAVEY [FAS1] | – | 2.75 ± 0.21 | – | 2.96 ± 0.19 |
| LHVLPTLNSRALSGLYY [SNM1] | 2.45 ± 0.052 | 2.45 ± 0.05 | 2.31 ± 0.042 | 2.12 ± 0.065 |
| LHYIPKYNRYEKRHKNV [RPS11A] | 2.06 ± 0.063 | 1.74 ± 0.054 | 2.26 ± 0.05 | 1.78 ± 0.089 |
| LIAIVSKLLQTTLKLSP [NUT1] | 2.19 ± 0.042 | 1.39 ± 0.063 | 1.21 ± 0.066 | 1.31 ± 0.11 |
| LIEKVDDTAANNGDKDH [YIL149C/MLP2] | 3.09 ± 0.099 | 3.25 ± 0.084 | 3.09 ± 0.065 | 2.99 ± 0.086 |
| LIESLNTIRQNVTSSGD [YML103C/NUP188] | 1.13 ± 0.064 | 1.27 ± 0.096 | 1.21 ± 0.081 | 1.17 ± 0.23 |
| LIGRPPLLVPGMTPCTV [FAS1] | 1.32 ± 0.071 | 1.82 ± 0.079 | 2.15 ± 0.06 | 1.81 ± 0.11 |
| LIIQYPPNNARRTYNTL [ISW2] | 2.09 ± 0.037 | 2.49 ± 0.042 | 2.33 ± 0.031 | 2.43 ± 0.052 |
| LIPCKYLNRHADFFVRE [RPN7] | 2.62 ± 0.092 | 2.49 ± 0.12 | 2.81 ± 0.11 | 2.18 ± 0.19 |
| LIRFDESITKAMEFIFG [SMC2] | 2.45 ± 0.082 | 2.52 ± 0.17 | – | 2.35 ± 0.16 |
| LISGAGANPRVLSTFTA [RPN10] | 2.16 ± 0.11 | 2.04 ± 0.1 | 2.17 ± 0.072 | 2.02 ± 0.2 |
| LISIHSRENNSEYMVFG [YJL039C/NUP192] | 3.03 ± 0.11 | 2.25 ± 0.13 | 3.15 ± 0.19 | 2.77 ± 0.1 |
| LISSSLSNLSKDIKANL [YCS4] | 2.26 ± 0.057 | 1.72 ± 0.061 | 2.35 ± 0.067 | 1.87 ± 0.1 |
| LISSSQDMQLKIWSVKD [RPN14] | 2.7 ± 0.12 | 2.73 ± 0.22 | 2.59 ± 0.1 | 2.56 ± 0.17 |
| LITSSARKELPIFDYIH [SIR3] | 2.16 ± 0.056 | 2.06 ± 0.061 | 2.48 ± 0.048 | 1.92 ± 0.068 |
| LIYHLKDCAEVDSRTKI [IRR1] | 3.23 ± 0.086 | 3.18 ± 0.072 | 3.23 ± 0.092 | 3.02 ± 0.058 |
| LKAQITSLKCLVNRKPI [SNF2] | 2.05 ± 0.045 | 1.77 ± 0.038 | 1.61 ± 0.032 | 1.6 ± 0.062 |
| LKDFNTERVVEIGPSPT [FAS2] | 2.888 ± 0.024 | 2.901 ± 0.022 | 2.716 ± 0.014 | 2.861 ± 0.017 |
| LKENNAILQKSLKNVTE [YIL149C/MLP2] | 2.67 ± 0.049 | 2.57 ± 0.057 | 2.75 ± 0.044 | 2.89 ± 0.038 |
| LKEVLYNDSATSGEAAA [RPN2] | 1.45 ± 0.057 | 1.52 ± 0.063 | 1.28 ± 0.056 | 1.86 ± 0.11 |
| LKEVPTYRYVSVSVLVD [RPS25A] | 2.64 ± 0.079 | 2.13 ± 0.069 | 1.66 ± 0.038 | 1.33 ± 0.1 |
| LKEYQSKIIVFPRDGKA [RPL13B] | 2.95 ± 0.082 | 3.17 ± 0.072 | 3.17 ± 0.054 | 3.22 ± 0.048 |
